Test results as given in the supplement of paper PMC12042874.
± gives the uncertainty stated by the source.

Experiment: amyloid nucleation score (Sup35N fusion, yeast selection) (log enrichment); library NNK1; higher = more nucleation; inactive = no reads after selection
Summary of the method: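 Peptides of 20 random codons fused to Sup35N were expressed in psi-negative yeast, induced 24 hours with 100 μM copper sulfate, then grown 7 days at 30°C on medium lacking adenine and uracil. Input and output plasmid inserts were Illumina-sequenced. Nucleation score is the DiMSum log enrichment of output over input reads, centred on the mode score of non-aggregating sequences, excluding sequences with under 100 input reads. Random libraries had three technical output replicates.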
With SGAPESYGDTNRRIVSSCFL the amyloid nucleation score was “inactive”.
Substance RKSPATVVFSRPSLWLYGRR has an amyloid nucleation score of 2.97 ± 0.094.
For ELRCLQVINGLASLSASVWW, the amyloid nucleation score was 0.067 ± 0.64.
SGHDGARVVMRRILYTSKSG gave an amyloid nucleation score of 0.291 ± 0.34.
GVGVCYFSC gave an amyloid nucleation score of 2.2 ± 0.22.
Substance MDTVFSFYVIIPVQFSCVAL has an amyloid nucleation score of 3 ± 0.13.
TDYSFKLFTFFSSESNGFPI showed an amyloid nucleation score of -1.01 ± 1.
SFSSPHLPYTCGSSIG gave an amyloid nucleation score of 0.258 ± 0.66.
In the case of HFTCRTLITGSYSVTTLNVS, the amyloid nucleation score is reported as 5.23 ± 0.061.
Work on QCRILAHAGLLPSGTCPMWL yielded an amyloid nucleation score of -0.919 ± 0.92.
ENRTSNFPYKVR showed an amyloid nucleation score of 0.421 ± 0.26.
For MGPMCSQPLHVPSMVSMVTL, the amyloid nucleation score was 0.735 ± 0.35.
Substance SIVNVDVALSHLCSYQRSRM has an amyloid nucleation score of 4.11 ± 0.1.
With NKMGFSRCSLQGDVKFF the amyloid nucleation score was -0.482 ± 0.51.
In the case of ILHIEDAVMADWMHILMGSR, the amyloid nucleation score is reported as 0.571 ± 0.35.
In the case of NTVFL, the amyloid nucleation score is reported as 0.549 ± 0.39.
For FRKFSCCVGSLVSSSYVLDS, the amyloid nucleation score was 6.16 ± 0.064.
With LSCYLYALVKGLGLRVGHIK the amyloid nucleation score was 0.177 ± 0.55.
FSGLDYNVYVNLVPYFLCIN showed an amyloid nucleation score of 6.34 ± 0.077.
In the case of RQGPGRLHSTCKTL, the amyloid nucleation score is reported as -0.257 ± 1.4.
SFSTKPTCRPPILHSLERVT showed an amyloid nucleation score of 3.62 ± 0.064.
For YWDKNFHYMCVARLFIVRLC, the amyloid nucleation score was 0.091 ± 0.7.
Substance YRDDYACFLRPYPARCG has an amyloid nucleation score of -0.141 ± 0.92.
In the case of LLNAFWSFAY, the amyloid nucleation score is reported as 1.6 ± 0.32.
MFCFKGHQSRDLRTFDYIW gave an amyloid nucleation score of 0.1 ± 0.27.
In the case of VSNTSLYPDKESMLRGTEWE, the amyloid nucleation score is reported as 0.674 ± 0.77.
Work on SLSMDIAVRSTTNRHANNIL yielded an amyloid nucleation score of -0.494 ± 1.1.
With HMGVRMNHFFTSDLSVVMWF the amyloid nucleation score was 3.59 ± 0.12.
With LFIKVLLGFF the amyloid nucleation score was 0.32 ± 0.45.
TDLFYMMCSRRQTYVCNLVR gave an amyloid nucleation score of 0.456 ± 0.43.
With YLSYDT the amyloid nucleation score was -0.411 ± 0.36.
ASGFESCDTEVVGFRGVCYA gave an amyloid nucleation score of 1.42 ± 0.51.
Substance GSTRYHAKMDPGWVRFT has an amyloid nucleation score of -0.482 ± 1.7.
SCSPGTYSWFNWWYKSPGVE gave an amyloid nucleation score of -0.021 ± 0.65.
Substance HLSMFDCVYSF has an amyloid nucleation score of 1.26 ± 0.9.
Substance LRSLAPCVLGKTGESEPRAF has an amyloid nucleation score of 0.056 ± 0.58.
In the case of YTVRLM, the amyloid nucleation score is reported as 0.125 ± 0.61.
Substance ISYRGSFHTNMWTCILRTAK has an amyloid nucleation score of 0.082 ± 0.42.
With CSCVCETEGRLSSSCYHHMP the amyloid nucleation score was 0.184 ± 0.38.
LSRLCGSRLLVRVVWRHYRG gave an amyloid nucleation score of -0.21 ± 0.28.
Substance GICLIAVVRGLIERGNGETE has an amyloid nucleation score of 0.206 ± 1.1.
FFVVVRAHIDPR showed an amyloid nucleation score of 0.188 ± 0.5.
Substance GGAQMVHTSQSRCAARGV has an amyloid nucleation score of -0.831 ± 0.7.
For STFFSY, the amyloid nucleation score was “inactive”.
EIHGCGCPLSKDGGGAFMWA gave an amyloid nucleation score of 1.22 ± 0.63.
AVKYRGNVMFKIRHIMLKCM gave an amyloid nucleation score of 0.023 ± 0.42.
Work on DMHQRMPVFHGHRATYCC yielded an amyloid nucleation score of 0.102 ± 0.56.
Work on VSHYGCFQTVCDLRVGGPPE yielded an amyloid nucleation score of -1.4 ± 2.4.
Work on KSDVAARVCDER yielded an amyloid nucleation score of 0.526 ± 0.31.
For QLNLNLFACQCSTV, the amyloid nucleation score was 8.072 ± 0.076.
For IVASSISAQVSLLYRALCIY, the amyloid nucleation score was 3.69 ± 0.16.
With LCAFLPVRTVKLCAFRIFDR the amyloid nucleation score was -1.06 ± 0.85.
In the case of RPMTVSKEAAKSDGCQKLNT, the amyloid nucleation score is reported as -0.634 ± 0.48.
For FYYGSVSLSWF, the amyloid nucleation score was “inactive”.
GLTWKTFPSCPMSENNCIRH gave an amyloid nucleation score of 0.133 ± 0.79.
In the case of LEQCYAAHSTYKMMPWAYKA, the amyloid nucleation score is reported as 0.091 ± 0.33.
LWLIVEDSVYFVGMQGHIFN gave an amyloid nucleation score of -0.381 ± 0.39.
For DYSCARYEPGNMVLLC, the amyloid nucleation score was -0.813 ± 1.5.
WCCHAGAMFAMAKSL gave an amyloid nucleation score of 0.468 ± 0.62.
FVNIADDRRVYLILSVHGDL showed an amyloid nucleation score of 6.575 ± 0.05.
Work on SSYRNWYRRSGDQLYYLEP yielded an amyloid nucleation score of 0.876 ± 0.42.
CVSLCVHKDMIVIAPGTLTQ showed an amyloid nucleation score of 4.81 ± 0.064.
In the case of FWSYSMP, the amyloid nucleation score is reported as “inactive”.
MSVLAIMHLGPGHFAAAYY showed an amyloid nucleation score of 0.186 ± 0.4.
With ILSGRRDNSAERGRGGLWVM the amyloid nucleation score was -0.206 ± 1.2.
Work on LDNRYFGHIMSLELMFIRPS yielded an amyloid nucleation score of 1.19 ± 0.58.
GWYEMASAHHMTDWYGW gave an amyloid nucleation score of -0.337 ± 0.51.
For IGLKKGHYNLILHYYFVWKV, the amyloid nucleation score was 0.505 ± 0.51.
YGETGVINWRV showed an amyloid nucleation score of -0.217 ± 0.44.
Work on SNDVIVWYPIDEGHAGCAYL yielded an amyloid nucleation score of 1.75 ± 0.66.
For HNLYMWVFCCCQYRMNFSWS, the amyloid nucleation score was 3.49 ± 0.11.
LQQITGSCSFSGWGLK gave an amyloid nucleation score of 0.091 ± 0.46.
With LPNRCASIVRQIVQVWCVS the amyloid nucleation score was 2.41 ± 0.12.
Work on VVVYGCLYILVARRYDTIAW yielded an amyloid nucleation score of 0.493 ± 0.84.
With YRFKFGVKWLAPNFLPAFGY the amyloid nucleation score was “inactive”.
Substance KFRSKLWNYFFACVEPATHP has an amyloid nucleation score of -0.013 ± 0.72.
For VYGMITIDNRQVRVVLGFRS, the amyloid nucleation score was -0.549 ± 0.71.
Substance GNYVVVVGYN has an amyloid nucleation score of 0.326 ± 0.5.
With QDCARH the amyloid nucleation score was “inactive”.
In the case of FCWHAFLSVTRFGRKIFFRF, the amyloid nucleation score is reported as 0.426 ± 0.35.
YDTLMMNNLEMSTFVRMGLW gave an amyloid nucleation score of 0.503 ± 0.51.
With YVPSRSGYIDFAGRNNRYSI the amyloid nucleation score was -0.401 ± 0.73.
For SLFEFWSDNFNQEQ, the amyloid nucleation score was 1.49 ± 0.76.
GFCLVVLGYCFYMFYATNNS gave an amyloid nucleation score of 0.042 ± 0.9.
With LLRLVSFCCFSNRN the amyloid nucleation score was 6.05 ± 0.053.
For LRAVTWLRYAYQGLFDVDV, the amyloid nucleation score was -0.07 ± 0.56.
